Data from PMC10521137.

Molecular target: Rad53 FHA1 domain, 1-165 (UniProt P22216)
Assay: biotin-peptide streptavidin pulldown, Coomassie stain
Settings: reference: unphosphorylated peptide (peptide 1); sites T402

**Q.** How did the “binding against the reference” value turn out when “Pol1 (catalytic subunit of DNA polymerase alpha) 393-412 (from UniProt P13382) pT402 peptide (peptide 2)” was run?
**A.** gained
